# Results: US5316935A, “Subtilisin variants suitable for hydrolysis and synthesis in organic media” (California Institute of Technology, priority 1992, dated 1994)
# Starred links: 1 amine or outer side, 2 acyl side, 3 side chain; linkers in the order of their positions; H or OH if unused. Residues, ends and D or L forms follow the SMILES beside them. *: point of attachment. pNA = O=[N+]([O-])c1ccc(N*)cc1; Suc = O=C(CCC(=O)[*:2])[*:1]
# T1: Bacillus subtilis subtilisin E variant Q103R (Bacillus subtilis, UniProt P04189, A256V/Q209R)
# T1 construct: each contain 275 residues; made in house; host or cells: Bacillus subtilis DB428 (vector pKWC), secreted into the medium
# T1 sequence (P04189 107-381 Q209R/A256V): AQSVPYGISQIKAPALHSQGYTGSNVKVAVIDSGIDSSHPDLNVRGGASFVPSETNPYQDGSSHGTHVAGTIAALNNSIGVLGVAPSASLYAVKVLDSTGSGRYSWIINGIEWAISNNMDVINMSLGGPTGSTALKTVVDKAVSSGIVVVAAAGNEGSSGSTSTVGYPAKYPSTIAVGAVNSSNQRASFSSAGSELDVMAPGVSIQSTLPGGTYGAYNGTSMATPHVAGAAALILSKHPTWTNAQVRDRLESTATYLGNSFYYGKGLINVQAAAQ
# T2: Bacillus subtilis subtilisin E variant 3M (D60N + Q103R + N218S) (Bacillus subtilis, UniProt P04189, A256V/D166N/N324S/Q209R)
# T2 construct: each contain 275 residues; made in house; host or cells: Bacillus subtilis DB428 (vector pKWC), secreted into the medium
# T2 sequence (P04189 107-381 D166N/Q209R/A256V/N324S): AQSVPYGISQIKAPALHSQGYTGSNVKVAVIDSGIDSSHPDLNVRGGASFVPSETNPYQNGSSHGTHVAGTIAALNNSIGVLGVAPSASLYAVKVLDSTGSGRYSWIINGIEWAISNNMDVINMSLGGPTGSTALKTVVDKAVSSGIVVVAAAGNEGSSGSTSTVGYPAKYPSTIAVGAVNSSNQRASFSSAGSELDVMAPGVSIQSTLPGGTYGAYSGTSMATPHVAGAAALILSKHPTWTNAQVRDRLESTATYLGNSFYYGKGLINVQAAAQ
# What was measured:
# [1] = target: T1, Bacillus subtilis subtilisin E variant Q103R; assay: Amidase activity: hydrolysis of p-nitroanilide peptide substrates; assay type: biochemical; conditions: 0.1M Tris-HCl, 10 mM CaCl2, pH 8, 37° C.
# Experimental: (§1) The amidase activities of subtilisin and derivatives thereof were measured on the substrate succinyl-Ala-Ala-Pro-Phe-p-nitroanilide (sAAPF-pna) at 37° C. in 0.1M Tris-HCl, pH 8.0 and 10 mM CaCl2. Assays were initiated by mixing the enzyme, the substrate and the reaction buffer. The amount of released p-nitroaniline was measured spectrophotometrically at 410 nm as a function of time. KM and kcat values for hydrolysis of sAAPF-pna by the subtilisin variants were obtained by nonlinear regression of the data using the program Enzfitter (Biosoft).
# (§2) For activity measurements in mixed buffer (containing DMF), a portion of the aqueous buffer was replaced by the percentage (w/v) of DMF indicated in Table II. Kinetic constants are reported in Table II for the wild-type enzyme and six variants with 3-10 amino acid substitutions in 20% and 40% DMF.
# The effects of different amino acid substitutions at position 103 on amidase activity were investigated. The variants Q103E, Q103K, and Q103S were constructed by PCR site-directed mutagenesis as described in Example VIII. The amidase activities of these variants and the variant Q103R identified by random mutagenesis and screening for enhanced activity in the presence of DMF (Example IV) are compared in Table III. The reactions were carried out in 10% DMF according to the procedures outlined in Examples XI and XII.
# The effects of the Q103R amino acid substitution on amidase activity were investigated for two substrates, succinyl-Ala-Ala-Pro-Phe-p-nitroanilide (negatively-charged succinyl group at the peptide N-terminus) and Ala-Ala-Pro-Phe-p-nitroanilide (positively charged N-terminus) in 10% DMF.
# [2] = target: T2, Bacillus subtilis subtilisin E variant 3M (D60N + Q103R + N218S); assay: Transesterification of methyl ester to ethyl ester in organic solvents; assay type: biochemical; conditions: 1M ethanol, 32° C.
# Experimental: (§3) The activity of the D60N+Q103R+N218S (3M) subtilisin E triple variant was compared to that of the wild-type enzyme for the transesterification of N-acetyl-L-phenylalanine methyl ester to the ethyl ester in three organic solvents. The reactions were carried out in 2 mL volumes of the indicated solvent, containing 1 mg/mL of enzyme, 100 mM N-acetyl-L-phenylalanine methyl ester, 1M ethanol. The samples were incubated, with shaking, at 32° C., and the formation of the ethyl ester product was measured by capillary gas chromatography. Values of the kinetic constants kcat /KM are given in Table VII for the wild-type and 3M variant enzymes. In all three solvents, anhydrous hexane, hexane containing 0.1% water, and acetonitrile containing 0.1% water, the D60N+Q103R+N218S (3M) triple variant was considerably more efficient than the wild-type enzyme.
# [3] = target: T3, Bacillus subtilis subtilisin E (subtilisin I168, aprA gene product), wild type, SEQ ID NO: 1 (Bacillus subtilis, UniProt P04189); assay: as above; assay type: biochemical; conditions: 1M ethanol, 32° C.
# T3 construct: each contain 275 residues; made in house; host or cells: Bacillus subtilis DB428 (vector pKWC), secreted into the medium
# Experimental: as §3
# [4] = substrate: C[C@H](NC(=O)CCC(=O)O)C(=O)N[C@@H](C)C(=O)N1CCC[C@H]1C(=O)N[C@@H](Cc1ccccc1)C(=O)Nc1ccc([N+](=O)[O-])cc1; assay: Amidase activity: hydrolysis of p-nitroanilide peptide substrates; assay type: biochemical, Bacillus subtilis; conditions: 0.1M Tris-HCl, 10 mM CaCl2, pH 8, 37° C.
# [5] = substrate: C[C@H](N)C(=O)N[C@@H](C)C(=O)N1CCC[C@H]1C(=O)N[C@@H](Cc1ccccc1)C(=O)Nc1ccc([N+](=O)[O-])cc1; assay: as above; assay type: biochemical, Bacillus subtilis; conditions: other: 10% DMF (Table IV), 0.1M Tris-HCl, 10 mM CaCl2, pH 8, 37° C.
# [6] = substrate: C[C@H](NC(=O)CCC(=O)O)C(=O)N[C@@H](C)C(=O)N1CCC[C@H]1C(=O)N[C@@H](Cc1ccccc1)C(=O)Nc1ccc([N+](=O)[O-])cc1; assay: as above; assay type: biochemical, Bacillus subtilis; conditions: other: 0% DMF, 0.1M Tris-HCl, 10 mM CaCl2, pH 8, 37° C.
# Experimental: as §1, §2
# [7] = substrate: C[C@H](NC(=O)CCC(=O)O)C(=O)N[C@@H](C)C(=O)N1CCC[C@H]1C(=O)N[C@@H](Cc1ccccc1)C(=O)Nc1ccc([N+](=O)[O-])cc1; assay: Amidase activity: hydrolysis of p-nitroanilide peptide substrate; assay type: biochemical, Bacillus subtilis; conditions: other: 0% DMF, 0.1M Tris-HCl, 10 mM CaCl2, pH 8, 37° C.
# Experimental: as §1, §2
molecule,measurement,setting,value
"C[C@H](N)C(=O)N[C@@H](C)C(=O)N1CCC[C@H]1C(=O)N[C@@H](Cc1ccccc1)C(=O)Nc1ccc([N+](=O)[O-])cc1 [AAPFpna, Ala-Ala-Pro-Phe-p-nitroanilide] (H-AAPF-pNA)",Km,[1]; 10% DMF (Table IV),≥ 37000 µM
same,kcat,[1]; 10% DMF (Table IV),≥ 2.6 s⁻¹
same,kcat /KM,[1]; 10% DMF (Table IV),0.07 M^-1 s^-1 × 10^3
COC(=O)[C@H](Cc1ccccc1)NC(C)=O [N-acetyl-L-phenylalanine methyl ester],kcat /KM,[2]; Ch3 CN (0.1% water),3.1 Min^-1 mg^-1 × 10^-3
same,kcat /KM,[2]; hexane (0.1% water),220 Min^-1 mg^-1 × 10^-3
same,kcat /KM,[2]; hexane (anhydrous),17 Min^-1 mg^-1 × 10^-3
same,kcat /KM,[3]; Ch3 CN (0.1% water),0.3 Min^-1 mg^-1 × 10^-3
same,kcat /KM,[3]; hexane (0.1% water),5 Min^-1 mg^-1 × 10^-3
same,kcat /KM,[3]; hexane (anhydrous),0.4 Min^-1 mg^-1 × 10^-3
C[C@H](NC(=O)CCC(=O)O)C(=O)N[C@@H](C)C(=O)N1CCC[C@H]1C(=O)N[C@@H](Cc1ccccc1)C(=O)Nc1ccc([N+](=O)[O-])cc1 [succinyl-Ala-Ala-Pro-Phe-p-nitroanilide] (Suc-AAPF-pNA),kcat /KM,[1]; 20% DMF,6.8 M^-1 s^-1 × 10^-3
"Bacillus subtilis subtilisin E (subtilisin I168, aprA gene product), wild type, SEQ ID NO: 1 (Bacillus subtilis subsp. subtilis str. 168) (protein, each contain 275 residues; made in house; host or cells: Bacillus subtilis DB428 (vector pKWC), secreted into the medium) AQSVPYGISQIKAPALHSQGYTGSNVKVAVIDSGIDSSHPDLNVRGGASFVPSETNPYQDGSSHGTHVAGTIAALNNSIGVLGVAPSASLYAVKVLDSTGSGQYSWIINGIEWAISNNMDVINMSLGGPTGSTALKTVVDKAVSSGIVVAAAAGNEGSSGSTSTVGYPAKYPSTIAVGAVNSSNQRASFSSAGSELDVMAPGVSIQSTLPGGTYGAYNGTSMATPHVAGAAALILSKHPTWTNAQVRDRLESTATYLGNSFYYGKGLINVQAAAQ",Km,[4]; other: 10% DMF (Table III),2900 µM
same,kcat,[4]; other: 10% DMF (Table III),20 s⁻¹
same,kcat/Km,[4]; other: 10% DMF (Table III),7.0 M^-1 s^-1 × 10^3
same,Km,[4]; other: 10% DMF (Table IV),510 µM
same,kcat,[4]; other: 10% DMF (Table IV),21 s⁻¹
same,kcat/Km,[4]; other: 10% DMF (Table IV),41 M^-1 s^-1 × 10^3
same,Km,[5],7800 µM
same,kcat,[5],0.83 s⁻¹
same,kcat/Km,[5],0.11 M^-1 s^-1 × 10^3
same,Km,[6],560 µM
same,kcat,[6],21 s⁻¹
same,kcat/Km,[6],38 M^-1 s^-1 × 10^3
"Bacillus subtilis subtilisin E variant 3M (D60N + Q103R + N218S) (Bacillus subtilis subsp. subtilis str. 168; A256V/D166N/N324S/Q209R) (protein, each contain 275 residues; made in house; host or cells: Bacillus subtilis DB428 (vector pKWC), secreted into the medium) AQSVPYGISQIKAPALHSQGYTGSNVKVAVIDSGIDSSHPDLNVRGGASFVPSETNPYQNGSSHGTHVAGTIAALNNSIGVLGVAPSASLYAVKVLDSTGSGRYSWIINGIEWAISNNMDVINMSLGGPTGSTALKTVVDKAVSSGIVVVAAAGNEGSSGSTSTVGYPAKYPSTIAVGAVNSSNQRASFSSAGSELDVMAPGVSIQSTLPGGTYGAYSGTSMATPHVAGAAALILSKHPTWTNAQVRDRLESTATYLGNSFYYGKGLINVQAAAQ",Km,[7],110 µM
same,kcat,[7],40 s⁻¹
same,kcat/Km,[7],360 M^-1 s^-1 × 10^3
